Laboratory results reported in patent US8008547B2, “Glyphosate-N-acetyltransferase (GAT) genes” (E.I. duPont de Nemours, priority 2000, dated 2011).

Experiments:
soybean plants = test: Greenhouse glyphosate spray of T0 soybean plants expressing GAT transgenes (discoloration score); type: in vivo; details: for number of events @ 3-6 / number of events @ 7-8: count in parentheses
Description: Soybean plants expressing GAT variant transgenes were produced using the method of particle gun bombardment (see Klein et al. (1987) Nature 327:70-73) using a DuPont Biolistic PDS1000/He instrument. The selection agent used during the transformation process was hygromycin. Either the hygromycin selectable marker gene remained in the transgenic events or the hygromycin gene was excised by methods known in the art. DNA fragments were prepared with a synthetic constitutive promoter, a GAT variant and PinII terminator. The selectable marker gene, comprising the 35S CaMV promoter, HPT gene and NOS terminator, was cobombarded with the GAT gene variant as described above. Bombarded soybean embryogenic suspension tissue was cultured for one week in the absence of selection agent. Embryogenic suspension tissue was placed in liquid selection medium for 6 weeks. Putative transgenic suspension tissue was sampled for PCR analysis to determine the presence of the GAT gene. Putative transgenic suspension culture tissue was maintained in selection medium for 3 weeks to obtain enough tissue for plant regeneration. Suspension tissue was matured for 4 weeks using standard procedures; matured somatic embryos were desiccated for 4-7 days and then placed on germination induction medium for 2-4 weeks. Germinated plantlets were transferred to soil in cell pack trays for 3 weeks for acclimatization. Plantlets were potted to 10-inch pots in the greenhouse for evaluation of glyphosate resistance.
To determine the level of glyphosate resistance of transgenic soybeans expressing the GAT variant transgenes, T0 plants were sprayed with glyphosate (Roundup ULTRA MAX™) in the greenhouse. Plant resistance levels were evaluated by […] • 7=minor leaf/stem discoloration • 5=worse leaf/stem discoloration • 3=severely discolored plant or dying plant • 1=dead plant
One to four plants were sent to the greenhouse from each independent transgenic event. An additional 1-2 plants per event were grown in controlled environment growth chambers for seed production and were not sprayed with glyphosate. The greenhouse plants were sprayed at 1×, 2× or 4× glyphosate (1× glyphosate=26 ounces/acre of RoundUp ULTRA MAX™) 3-4 weeks after transfer to soil. The T0 plant discoloration scores with 2× and 4× spray rates are shown in Table 10 and Table 11, respectively.

tobacco plants = test: Herbicide spray tests of GAT expressing tobacco plants; type: in vivo, Nicotiana tabacum; details: transgenic GAT tobacco; for plant response two weeks after glyphosate spray: 0.5, 2 or 4× glyphosate (1× = 32 oz/acre of 40% ai); for survival after second spray: 8× glyphosate dose three weeks later
Description: Tobacco shoots generated as described in EXAMPLE 9 were excised from the explants and transferred to basal root induction (BRI) medium composed of half-strength Murashige and Skoog (MS) medium, pH 5.7, with 1.5% sucrose, 0.3% Gelrite, 0-200 uM glyphosate and 400 ug/ml Timentin. Rooted plants and axillary shoots were clonally propagated by cutting the stem and transferring it to fresh BRI medium until the desired number of clones was obtained. Rooted plants were carefully removed from the solid medium. Prior to placing the plants into small pots of soil, the roots were washed to remove any remaining Gelrite. A protective plastic cover was kept over the plants for at least one week until the plants were well established.
To determine if GAT expressing tobacco plants could tolerate simulated field rate sprays of glyphosate, clonal lines of several events per GAT variant were tested. A typical test was set up as follows: One clone from each event was sprayed with 1 ml of solution containing the isopropylamine salt of glyphosate (Sigma P5671) and 0.125% Triton X-100, pH 6.8 such that the amount of active ingredient sprayed was equivalent to that present in commercial glyphosate products. For example, to achieve 32 oz/acre (1×) of herbicide containing 40% active ingredient (“ai”), 2.4 ul of 40% ai formulation was diluted into 1 ml water and sprayed on a plant in a 4-inch square pot (16 in^2). A mock application (0×) with surfactant only was also included. In some cases a second spray was applied 1-4 weeks later. Plants were kept in controlled growth rooms at 25° C. and 70% humidity with 16 hr light.
Seed-grown wild type plants were also sprayed. […] All 0× plants were healthy, including the non-GAT control plants. Three weeks later all of the surviving plants were sprayed with an 8× dose.

[1] = 10 days after 2X glyphosate (1× = 26 ounces/acre), 7=minor leaf/stem discoloration
[2] = 10 days after 2X glyphosate, 5=worse discoloration, 3=severely discolored or dying

Molecule | % EVENTS @ 7-8 (soybean plants; [1]) [%] | % EVENTS @ 3-6 (soybean plants; [2]) [%] | number of events @ 3-6 (soybean plants; 10 days after 2X glyphosate) | number of events @ 7-8 (soybean plants; 10 days after 2X glyphosate) | % EVENTS @ 3-6 (soybean plants; 10 days after 4X glyphosate) [%] | % EVENTS @ 7-8 (soybean plants; 10 days after 4X glyphosate) [%] | number of events @ 3-6 (soybean plants; 10 days after 4X glyphosate) | number of events @ 7-8 (soybean plants; 10 days after 4X glyphosate) | plant response two weeks after glyphosate spray (tobacco plants) | survival after second spray (tobacco plants)
SEQ ID NO: 824: GAT gene variant expressed in transgenic soybean (nucleic acid, Synthetic DNA Sequence; CDS (1)...(441); 18-28D9c, GAT gene variant expressed in transgenic soybean) DNA: ATGATAGAGGTGAAACCGATTAACGCAGAGGATACCTATGAACTAAGGCATAGAATACTCAGACCAAACCAGCCGATAGAAGCGTGTATGTTTGAAAGCGATTTACTTCGTGGTGCATTTCACTTAGGCGGCTTTTACAGGGGCAAACTGATTTCCATAGCTTCATTCCACCAGGCCGAGCACTCGGAACTCCAAGGCCAGAAACAGTACCAGCTCCGAGGTATGGCTACCTTGGAAGGTTATCGTGAGCAGAAAGCGGGATCAACTCTAGTTAAACACGCTGAAGAAATCCTTCGTAAGAGGGGGGCGGACATGCTTTGGTGTAATGCGAGGACATCCGCCTCAGGCTACTACAAAAAGTTAGGCTTCAGCGAGCAGGGAGAGATATTTGACACGCCGCCAGTAGGACCTCACATCCTGATGTATAAAAGGATCACATAA | 8 | 74 | 23 | 3 | 43 | 8 | 10 | 2 |  | 
SEQ ID NO: 193: GAT gene variant (nucleic acid, Synthetic DNA Sequence; 0_5D3, GAT gene variant) DNA: ATGCTAGAGGTGAAACCGATTAACGCAGAGGATACCTATGAACTAAGGCATAGAATACTCAGACCAAACCAGCCGATAGAAGCGTGTATGTATGAAAGCGATTTACTTCGTGGTGCATTTCACTTAGGCGGCTATTACAGGGGCAAACTGATTTCCATAGCTTCATTCCACCAGGCCGAGCACTCAGAACTCCAAGGCCAGAAACAGTACCAGCTCCGAGGTATGGCTACCTTGGAAGGTTATCGTGAGCAGAAAGCGGGATCGAGTCTAATTAAACACGCTGAAGAAATTCTTCGTAAGAGGGGGGCGGACTTGCTTTGGTGTAATGCGCGGACATCCGCCTCAGGCTACTACAAAAAGTTAGGCTTCAGCGAGCAGGGAGAGATATTTGAAACGCCGCCAGTAGGACCTCACATCCTGATGTATAAAAGGATCACATAA | 15 | 11 | 3 | 4 |  |  |  |  | survived the spraying procedure without signs of glyphosate damage | all GAT plants survived
SEQ ID NO: 190: evolved GAT gene (nucleic acid, Synthetic DNA Sequence; 0_5B8, evolved GAT gene) DNA: ATGATAGAGGTGAAACCGATTAACGCAGAGGATACCTATGAACTAAGGCATAAAATACTCAGACCAAACCAGCCGATAGAAGCGTGTATGTATGAAAGCGATTTACTTCGTGGTGCATTTCACTTAGGCGGCTTTTACAGGGGCAAACTGATTTCCATAGCTTCATTCCACCAGGCCGAGCACTCAGACCTCCAAGGCCAGAAACAGTACCAGCTCCGAGGTATGGCTACCTTGGAAGGTTATCGTGATCAGAAAGCGGGATCGAGTCTAATTAGACACGCTGAACAAATTCTTCGTAAGAGGGGGGCGGACTTGCTTTGGTGCAATGCGCGGACATCCGCCTCAGGCTACTACAAAAAGTTAGGCTTCAGCGAGCAGGGAGAGATATTTGATACGCCGCCAGTAGGACCTCACATCCTGATGTATAAAAGGCTCACA |  |  |  |  |  |  |  |  | survived the spraying procedure without signs of glyphosate damage | all GAT plants survived
